The results in this text go back to patent US20240425579A1.

Experiment [1] deals with T1, biotinylated hu-PDL2 (human) (UniProt Q9BQ51).
T1 sequence (biotinylated, looked up): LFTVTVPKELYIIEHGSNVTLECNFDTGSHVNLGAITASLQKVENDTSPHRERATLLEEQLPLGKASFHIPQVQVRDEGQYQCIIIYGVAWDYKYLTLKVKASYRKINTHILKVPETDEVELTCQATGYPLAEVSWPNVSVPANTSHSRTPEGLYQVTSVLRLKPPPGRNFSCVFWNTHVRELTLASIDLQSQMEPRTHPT
The experiment is described as follows: ELISA: construct coated at 1 µg/mL, varying biotinylated hu-PDL2, streptavidin-HRP.

Experiment [2] addresses T1, biotinylated hu-PDL2 (human). The experiment is described as follows: ELISA: varying concentrations of construct coated, fixed biotinylated hu-PDL2 (500 ng/mL). (In general: ELISA stands for enzyme-linked immunosorbent assay.)

wild type PD1 construct (wild-type PD1 ECD comparator of anti-IL-23-PD1ecd), sequence (heavy, part): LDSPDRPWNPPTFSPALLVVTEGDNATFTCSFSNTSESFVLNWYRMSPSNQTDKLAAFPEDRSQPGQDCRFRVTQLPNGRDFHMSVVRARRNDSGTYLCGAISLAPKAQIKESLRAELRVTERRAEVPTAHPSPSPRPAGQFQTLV

As usually defined, the EC50 is the concentration at which the effect is half-maximal. Lower therefore signals higher potency in that assay. Turning to “wild type PD1 construct (wild-type PD1 ECD comparator of anti-IL-23-PD1ecd)”, the concentration for a half-maximal effect (EC50) in experiment [1] stood at 0.131 µM; in experiment [2], 6 µM.
